Reference: patent US20130309222A1 (Janssen / Centocor, published 2013)
Ends that are not written are not given here.

Columns and labels:
infliximab [1] = assay: ELISA, infliximab captured on goat anti-human Fc, biotinylated peptide titrated, streptavidin-HRP, luminescence
infliximab [2] = assay: SPR (Biacore S51), biotinylated peptide on streptavidin chip, infliximab as analyte, 1:1 Langmuir fit, average of N=2

infliximab, sequence (VH, as listed by the source, chain 1 of 2): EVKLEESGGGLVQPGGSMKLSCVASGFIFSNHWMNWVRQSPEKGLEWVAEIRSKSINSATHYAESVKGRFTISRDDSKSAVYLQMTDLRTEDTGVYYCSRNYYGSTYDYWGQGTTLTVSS
infliximab, sequence (VL, as listed by the source, chain 2 of 2): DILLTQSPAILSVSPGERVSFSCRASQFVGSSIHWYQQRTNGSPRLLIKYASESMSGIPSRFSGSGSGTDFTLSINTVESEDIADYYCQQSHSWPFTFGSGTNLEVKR

EC50 (read off the curve) (infliximab [1]) [nM]	Kd (infliximab [2]) [nM]	Binder
~3000	17.1	AGYVCDPAGPNCWA (cysteine pairing not given here; also: biotinylated, position not given here, Fmoc solid phase synthesis; also called 1011A) [biotinylated, chemically synthesized peptide having SEQ ID NO: 2]
~10000	9.17	AGVWCGDETLPPSICFR (cysteine pairing not given here; also: biotinylated, position not given here, Fmoc solid phase synthesis; also called 1067B) [biotinylated, chemically synthesized peptide having SEQ ID NO: 10]
